According to patent US20240336909:

What was measured:
[1] = biological target: AxCT mask27 EGFR EH104 L001 version 1
[2] = biological target: AxCT mask27 EGFR EH104 L040 version 1
[3] = biological target: AxCT mask27 EGFR EH104 L041 version 1
[4] = biological target: AxCT mask27 EGFR EH104 L043 version 1
[5] = biological target: AxCT mask27 EGFR EH104 L054 version 1
[6] = biological target: AxCT mask27 EGFR EH104 L055 version 1
[7] = biological target: AxCT mask27 EGFR EH104 L056 version 1
[8] = biological target: AxCT mask27 EGFR EH104 L057 version 1
[9] = biological target: AxCT mask27 EGFR EH104 L058 version 1
[10] = biological target: AxCT mask27 EGFR EH104 L059 version 1
[11] = biological target: AxCT mask27 EGFR EH104 L060 version 1
[12] = biological target: AxCT mask27 EGFR EH104 L061 version 1
[13] = biological target: AxCT mask27 EGFR EH104 L062 version 1
[14] = biological target: AxCT mask27 EGFR EH104 L063 version 1
[15] = biological target: AxCT mask27 EGFR EH104 L064 version 1
[16] = biological target: AxCT mask27 EGFR EH104 L065 version 1
[17] = biological target: AxCT mask27 EGFR EH104 L066 version 1
[18] = biological target: AxCT mask27 EGFR EH104 L067 version 1
[19] = biological target: AxCT mask27 EGFR EH104 L068 version 1
[20] = biological target: AxCT mask27 EGFR EH104 L069 version 1
[21] = biological target: AxCT mask27 EGFR EH104 L070 version 1
[22] = biological target: AxCT mask27 EGFR EH104 L071 version 1
[23] = biological target: AxCT mask27 EGFR EH104 L072 version 1
[24] = biological target: AxCT mask27 EGFR EH104 L073 version 1
[25] = biological target: AxCT mask27 EpCAM H90 L001 version 1
[26] = biological target: AxCT mask27 EpCAM H90.2 L040 version 1
[27] = biological target: AxCT mask27 EpCAM H90.2 L041 version 1
[28] = biological target: AxCT mask27 EpCAM H90.2 L043 version 1
[29] = biological target: AxCT mask27 EpCAM H90.2 L059 version 1
[30] = biological target: AxCT mask27 EpCAM H90.2 L060 version 1
[31] = biological target: AxCT mask27 EpCAM H90.2 L061 version 1
[32] = biological target: AxCT mask27 EpCAM H90.2 L063 version 1
[33] = biological target: AxCT mask27 EpCAM H90.2 L064 version 1
[34] = biological target: AxCT mask27 EpCAM H90.2 L073 version 1
[35] = biological target: AxCT mask27 EpCAM H90.2 L075 version 1
[36] = biological target: AxCT mask27 EpCAM H90.2 L076 version 1
[37] = biological target: AxCT mask27 EpCAM H90.2 NCLV

| Protein | Percent cleavage [1] | Percent cleavage [2] | Percent cleavage [3] | Percent cleavage [4] | Percent cleavage [5] | Percent cleavage [6] | Percent cleavage [7] | Percent cleavage [8] | Percent cleavage [9] | Percent cleavage [10] | Percent cleavage [11] | Percent cleavage [12] | Percent cleavage [13] | Percent cleavage [14] | Percent cleavage [15] | Percent cleavage [16] | Percent cleavage [17] | Percent cleavage [18] | Percent cleavage [19] | Percent cleavage [20] | other results |
| --- | --- | --- | --- | --- | --- | --- | --- | --- | --- | --- | --- | --- | --- | --- | --- | --- | --- | --- | --- | --- | --- |
| Cathepsin G (protein) IIGGRESRPHSRPYMAYLQIQSPAGQSRCGGFLVREDFVLTAAHCWGSNINVTLGAHNIQRRENTQQHITARRAIRHPQYNQRTIQNDIMLLQLSRRVRRNRNVNPVALPRAQEGLRPGTLCTVAGWGRVSMRRGTDTLREVQLRVQRDRQCLRIFGSYDPRRQICVGDRRERKAAFKGDSGGPLLCNNVAHGIVSYGKSSGVPPEVFTRVSSFLPWIRTTMRS | 0% | 0% | 0% | 0% | 0% | 0% | 0% | 0% | 0% | 8% | 0% | 0% | 0% | 0% | 0% | 0% | 0% | 0% | 0% | 12% | Percent cleavage [21]: 0%; Percent cleavage [22]: 0%; Percent cleavage [23]: 0%; Percent cleavage [24]: 0%; Percent cleavage [25]: 0%; Percent cleavage [26]: 0%; Percent cleavage [27]: 0%; Percent cleavage [28]: 0%; Percent cleavage [29]: 6%; Percent cleavage [30]: 0%; Percent cleavage [31]: 0%; Percent cleavage [32]: 0%; Percent cleavage [33]: 0%; Percent cleavage [34]: 0%; Percent cleavage [35]: 8%; Percent cleavage [36]: 0%; Percent cleavage [37]: 0% |
| MMP-2 (protein) YNFFPRKPKWDKNQITYRIIGYTPDLDPETVDDAFARAFQVWSDVTPLRFSRIHDGEADIMINFGRWEHGDGYPFDGKDGLLAHAFAPGTGVGGDSHFDDDELWTLGEGQVVRVKYGNADGEYCKFPFLFNGKEYNSCTDTGRSDGFLWCSTTYNFEKDGKYGFCPHEALFTMGGNAEGQPCKFPFRFQGTSYDSCTTEGRTDGYRWCGTTEDYDRDKKYGFCPETAMSTVGGNSEGAPCVFPFTFLGNKYESCTSAGRSDGKMWCATTANYDDDRKWGFCPDQGYSLFLVAAHEFGHAMGLEHSQDPGALMAPIYTYTKNFRLSQDDIKGIQELYGASPDIDLGTGPTPTLGPVTPEICKQDIVFDGIAQIRGEIFFFKDRFIWRTVTPRDKPMGPLLVATFWPELPEKIDAVYEAPQEEKAVFFAGNEYWIYSASTLERGYPKPLTSLGLPPDVQRVDAAFNWSKNKKTYIFAGDKFWRYNEVKKKMDPGFPKLIADAWNAIPDNLDAVVDLQGGGHSYFFKGAYYLKLENQSLKSVKFGSIKSDWLGC | 71% | 60% | 51% | 27% | 59% | 35% | 51% | 47% | 62% | 39% | 27% | 43% | 63% | 31% | 63% | 71% | 25% | 34% | 48% | 29% | Percent cleavage [21]: 22%; Percent cleavage [22]: 39%; Percent cleavage [23]: 73%; Percent cleavage [25]: 104%; Percent cleavage [26]: 90%; Percent cleavage [28]: 39%; Percent cleavage [29]: 55%; Percent cleavage [30]: 40%; Percent cleavage [31]: 74%; Percent cleavage [32]: 36%; Percent cleavage [33]: 79%; Percent cleavage [34]: 17%; Percent cleavage [35]: 0%; Percent cleavage [36]: 35%; Percent cleavage [37]: 0% |
| Matriptase (protein) VVGGTDADEGEWPWQVSLHALGQGHICGASLISPNWLVSAAHCYIDDRGFRYSDPTQWTAFLGLHDQSQRSAPGVQERRLKRIISHPFFNDFTFDYDIALLELEKPAEYSSMVRPICLPDASHVFPAGKAIWVTGWGHTQYGGTGALILQKGEIRVINQTTCENLLPQQITPRMMCVGFLSGGVDSCQGDSGGPLSSVEADGRIFQAGVVSWGDGCAQRNKPGVYTRLPLFRDWIKENTGV | 37% | 67% | 62% | 59% | 37% | 53% | 39% | 36% | 23% | 33% | 62% | 20% | 52% | 49% | 0% | 0% | 0% | 0% | 0% | 0% | Percent cleavage [21]: 13%; Percent cleavage [22]: 0%; Percent cleavage [23]: 0%; Percent cleavage [24]: 0%; Percent cleavage [25]: 42%; Percent cleavage [26]: 93%; Percent cleavage [27]: 80%; Percent cleavage [28]: 79%; Percent cleavage [29]: 39%; Percent cleavage [30]: 92%; Percent cleavage [31]: 22%; Percent cleavage [32]: 68%; Percent cleavage [33]: 0%; Percent cleavage [34]: 0%; Percent cleavage [35]: 0%; Percent cleavage [36]: 0%; Percent cleavage [37]: 0% |
| Neutrophil Elastase (protein) IVGGRRARPHAWPFMVSLQLRGGHFCGATLIAPNFVMSAAHCVANVNVRAVRVVLGAHNLSRREPTRQVFAVQRIFENGYDPVNLLNDIVILQLNGSATINANVQVAQLPAQGRRLGNGVQCLAMGWGLLGRNRGIASVLQELNVTVVTSLCRRSNVCTLVRGRQAGVCFGDSGSPLVCNGLIHGIASFVRGGCASGLYPDAFAPVAQFVNWIDSIIQ | 34% | 13% | 0% | 7% | 23% | 9% | 14% | 28% | 9% | 15% | 10% | 19% | 8% | 9% | 30% | 10% | 9% | 32% | 19% | 22% | Percent cleavage [21]: 11%; Percent cleavage [22]: 26%; Percent cleavage [23]: 10%; Percent cleavage [24]: 9%; Percent cleavage [25]: 44%; Percent cleavage [26]: 9%; Percent cleavage [27]: 0%; Percent cleavage [28]: 0%; Percent cleavage [29]: 14%; Percent cleavage [30]: 7%; Percent cleavage [31]: 14%; Percent cleavage [32]: 0%; Percent cleavage [33]: 32%; Percent cleavage [34]: 10%; Percent cleavage [35]: 0%; Percent cleavage [36]: 6%; Percent cleavage [37]: 0% |
